These are literature values, as cited in paper PMC4785862.

Where two headings read alike, the source gives them in different places.

Data set [1] has as its target IL-8 (Homo sapiens) (UniProt P10145).
Data set [2] has the same target. This is another data set of the same source.

IL-8 (Homo sapiens), sequence (P10145 28-99): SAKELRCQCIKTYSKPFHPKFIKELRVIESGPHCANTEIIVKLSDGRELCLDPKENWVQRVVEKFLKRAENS
CXCR2, sequence (P25025 whole entry): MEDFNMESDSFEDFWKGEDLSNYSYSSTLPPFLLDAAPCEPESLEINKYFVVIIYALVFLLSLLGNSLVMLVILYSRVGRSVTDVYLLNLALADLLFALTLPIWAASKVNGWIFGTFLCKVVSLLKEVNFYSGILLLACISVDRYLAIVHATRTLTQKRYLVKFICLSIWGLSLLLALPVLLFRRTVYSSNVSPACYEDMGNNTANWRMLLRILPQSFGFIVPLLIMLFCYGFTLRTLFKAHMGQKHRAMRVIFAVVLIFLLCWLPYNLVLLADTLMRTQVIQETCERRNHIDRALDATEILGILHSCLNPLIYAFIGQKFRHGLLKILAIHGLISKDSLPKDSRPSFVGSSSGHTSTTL
CXCR1, sequence (P25024 whole entry): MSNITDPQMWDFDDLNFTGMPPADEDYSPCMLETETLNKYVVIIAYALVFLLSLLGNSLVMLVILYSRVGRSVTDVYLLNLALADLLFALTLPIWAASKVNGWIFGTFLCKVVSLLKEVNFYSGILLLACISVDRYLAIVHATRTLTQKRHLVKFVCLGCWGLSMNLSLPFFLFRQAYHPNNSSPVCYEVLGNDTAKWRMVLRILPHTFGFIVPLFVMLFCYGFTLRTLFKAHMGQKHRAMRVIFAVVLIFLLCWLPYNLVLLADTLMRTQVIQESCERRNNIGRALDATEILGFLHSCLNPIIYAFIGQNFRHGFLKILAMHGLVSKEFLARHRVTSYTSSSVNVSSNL

Usually Kd stands for the concentration at which binding is half-saturated. With CXCR2 (from UniProt P25025), the Kd with IL-8 (Homo sapiens) [1] was 2.5 nM.
Turning to CXCR1 (from UniProt P25024), the Kd with IL-8 (Homo sapiens) [2] is 5 nM.
